This data set can be described thus: yeast display, Sf9 membrane polyspecificity reagent, FACS + sequencing; frameworks hold sequencing errors. An outline of the steps: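 Synthetic nanobody libraries on Saccharomyces cerevisiae BJ5465 were galactose-induced for 36–48 hours, stained 1 hour at 4 °C with 10% biotinylated, detergent-solubilized Sf9 membrane reagent and enriched on streptavidin microbeads. FACS then separated cells into low and high (top ~1%) gates by anti-HA (expression) and streptavidin (reagent binding) fluorescence. Genes were colony-PCR amplified, MiSeq 2 × 250 sequenced and CDR-length filtered. A clone's polyreactivity label is that of its gate of origin.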
As to “QVQLVESGGGLVQAGGSLRLTFAASGSTFDYYAMGWYRQAPGKERELVAGITSDGSTYYADSVKGRFTISRDNAKNTVYLQMNSLKPEDTAVYYCDVDVDPVFYTTYYYSYYYWGQGTQVTVSS”, the “polyreactivity (PSR sort gate)” value was “low polyreactivity”.

Regarding “QVQHVESGGGLVQAAGSLRLICYASGSIFGSYAMGWYRPAPGKERELVAAISSRGSRTYYADSVKGRFTISRDNAKNTVYLQMNSLKPEDTAVYYSNAGALTNYDYWGQGTQVTVSS”, the “polyreactivity (PSR sort gate)” value is on record as “high polyreactivity”.

Turning to “QVQLVESGGGLVQAGGSLRLSCAASGYIFVRYAMGWYRQAPGKERELVAAINSSGGRTYYADSVKGRFTISRDNAKNTVYLQLNSLKPEDTAVYYCAAYGYYRSGYRALEGYWGQGTQVTVAS”, the “polyreactivity (PSR sort gate)” value is on record as “high polyreactivity”.

For “QVQLVESGGGLVQAGGSLRLSCAASGSTFTPYVMGWYRQAPGKEREVVAAISNVGRTYYADSVKGRFTISRDNAKNTVYLQMNSLKPEDTAVYYCAVRRDKNYYDWGQGTQVTVSS”, the “polyreactivity (PSR sort gate)” value is “high polyreactivity”.

As for “QVQLVESGGGLVQAGGSLRLSCAASGSIFTSYAMGWYRQAPGKERELVAAISSSGSTYYADSVKGRFTISRDNAKNTVYLQMNSLKPEDTAVYYCNADSRTAGLNSEYDYWGQGTQVTVSS”, the “polyreactivity (PSR sort gate)” value is listed as “low polyreactivity”.

Turning to “QVQLVESGGGLVQAGGSLRLTCAASGRIFPYYAMGWYRQAPGKEREFVAAITSSGSRTYYADSVKGRFTISRDNAKNNVYLQMNSLKPEDTAVYYCAVAYRLLYYYWGQGTQVTVSS”, the “polyreactivity (PSR sort gate)” value was “high polyreactivity”.

With “QVQLVESGGGLVQAGGSLRLSCAASGFIIGSNGMGWYRQAPGKERELVAAISKNGGTTYYADSVKGRVTISRDNANNTVYLLMNSLKPADTAVYYCAAYKAVPNYYYWGQGTQVTVSS”, the “polyreactivity (PSR sort gate)” value was “high polyreactivity”.

For “QVQLVESGGGLVQAGGSLRLSCAASGFTFRVYAMGWYRQAPGKERELVAAISSGGSTNYADSVKGRFTISRDNAKNTVYLQMNSLKPEDTAVYYCAARTYRWYGPGSYGYWGQGTQVTVSS”, the “polyreactivity (PSR sort gate)” value was “high polyreactivity”.

Consider “QVQLVESGGGLVQAGGSLRLSCAASGYTFWDYAMGWYRQAPGKEREFVAGISFSDGGTYYADSVKGRFTITRDNAKNTVYLQMNSLKPEDTAVYYCAATYPYSWVYSGYYYWGQGTQVTVSS”, for which the “polyreactivity (PSR sort gate)” value is given as “low polyreactivity”.

With “QVQLVESGGGLVQAGGSLRLSCAASGTIFYGNAMGWYRQAPGKEREYVAAITYSGGSTYYADSVKGRFSISRDNAKNTVYLQMNSLKPEDTAVYYCAKAYYPKGRYGFDYWGQGTQVTVSS”, the “polyreactivity (PSR sort gate)” value is on record as “high polyreactivity”.

On to “QVQLVESGGGLVQAGGSLRLSCAASGFIFYDYAMGWYRQAPGKERELVAAISSGGSTNYADSVKGRFTISRDNAKNTVYLQMNSLKPEDTAVYYCNVDYGVHVPPRDYWGQGTQVTVSS”, for which the “polyreactivity (PSR sort gate)” value is listed as “low polyreactivity”.

For the sequence “QVQLVESGGGLVQAGGSLRLSCAASGSTFYRNAMGWYIQAPGKEREFVAAISYSGGGTYYADSVKGRFTISRDNAKNTVYLQMNSLKPEETAVYYCAADVSGWEYDYWGQVTQVTVSS”, the “polyreactivity (PSR sort gate)” value is “low polyreactivity”.

On to “QVQLVESGGGLVQAGGSLRLSCAASRSIFDLYAMGWYRQAPGKEREFVAAITWRGSSTYYADSVKGRFTISRDNAKNNVYLQMNSLKPEDTAVYYCAATHNQVVARYAFIYWGQGTQVTVSS”, for which the “polyreactivity (PSR sort gate)” value is listed as “high polyreactivity”.

With “QVQLVESGGGLVQAGGSLRLSCAASGSTFEDNAMGWYRQAPGKERELVAVITWTGGSTYYADSVKGRFTISRDNAKNTVYLQMNSLKPEDTAGYYCAADGVVPGRFFWPAHAYDYCGQGTQVTVSS”, the “polyreactivity (PSR sort gate)” value is “low polyreactivity”.

With “QVQLVESGGGLVQAGGSLRLSFAASGFTFYRYAMGWYRQAPGKERELVAAISGDGGSTYYAASVKGRFTISRDNAKNTVYLQMNSLKPEDTAVYYCNKYFWQYLYGYWGQGTQVTVSS”, the “polyreactivity (PSR sort gate)” value is “high polyreactivity”.

“QVQLVETGGGLVQAGGSLRLSCAASGSTLAPYVMGWYRQAPGKERELVAVISTRTGRTYYADSVKGRFTISRDNAKNTVYLQMNSLKPEDTAVYYCAAPVYPYQVQTYDYWGQGTQVTVSS”: the “polyreactivity (PSR sort gate)” value was “high polyreactivity”.

Turning to “QVQLVESGGGLVQAGGSLRLSCAASGSIFGVYAMGWYRQAPGKERELVAAIDSGGDTYYADSVKGRFTISRDNAKNTVYLQMNSLKPEDTAVYYCNAPYNRATYNYWGQGTQVTVSS”, the “polyreactivity (PSR sort gate)” value was “high polyreactivity”.

Regarding “QVQLVESGGGLVQAGGSLRLSCAASGSTCFDYAMGWYRQAPGKERELVAAISRSGDTNYADSVKGRFTISRDNAKNTVYLQMNILKPEDTAVYYCAKDWAYRRHWVGFYYWGQGTQVTVSS”, the “polyreactivity (PSR sort gate)” value is on record as “low polyreactivity”.

Consider “QVQLVESGGGLVQAGGSLRLSCAASGYIFNVYAMGWYRQAPGKESELVAAISTSGGSTYYADSVKGRFSISRDNAKNTVYLQMNSLKPEDTAVYYCAAKSTLSRSHKSDYWGQGTQVTVSS”, for which the “polyreactivity (PSR sort gate)” value was “high polyreactivity”.

As to “QVQLVESGGGLVQAGGSLRLSCAASGSTFDTYAMGWYRQAPGKERELVAAISSGGSTNYADSVKGRFTISRDNAKNTVYLQMNSLKPEDTAVYYCADSNKSVFPVYGTLDEYWGQGTQVTVSS”, the “polyreactivity (PSR sort gate)” value was “low polyreactivity”.

As for “QVQLVESGRGLFQAGRSLRISCAASGSIFSYNTMGWYREAPGKERELVASISSGGRTYYADSVKGRFTISRDNAKNTVYLQMNSLKPVDTAVYDCARVPYAYLPYKPFQQYSYDYWGQGTQVTVSS”, the “polyreactivity (PSR sort gate)” value is on record as “high polyreactivity”.

With “QVQLVESGGGLVQAGGSLRVSCAASGFTFSYYVMGWYRQAPGKERELVAAITTSGSGTYYADSVKGRFTISRDNAKNTVYLQMNSLKPEDTAVYYCAARPYRGFVSRYGYWGQGTQVTVSS”, the “polyreactivity (PSR sort gate)” value was “low polyreactivity”.

For “QVQLVESGGGLVQAGGSLRLSCAASGSIFYINAMGWYRQAPGKEREFVATITWSGDSTYYADSVKGRFTISRDNAKNTVYLQMNSLKPEDTAVYYCTARKQYQSYVDWEYDYWGQGTQVTVSS”, the “polyreactivity (PSR sort gate)” value is on record as “low polyreactivity”.

With “QVQLVDSGGGLVQAGGTLRLSCAASGRTIRYNAMAWYRQAPGKERELVAAITGSGGSTYYADSVKGRFTISRDNAKNTVYLQMNSLKPEDTAVYYCARDGYLVYYYDWSYPYDSWGQGTQVTVSS”, the “polyreactivity (PSR sort gate)” value is listed as “low polyreactivity”.

For the sequence “QVQLVESGGGLVQAGGSLRLSCAASGRIFGYNAMGRYRQAPGKERELVAAISSGASTIYADSVKGRFTISRDNAKNTVYLQMNSLKPEDTAVYYCAKEKVISPYPYSYYKSDYWGQGTQVTVSS”, the “polyreactivity (PSR sort gate)” value is on record as “high polyreactivity”.

Turning to “QVQLEESGGGLVQAGGSLRLICAAYGSIIPYNAMGWYRQQPGEFVDAISYSSGSTYYADSVKGRFTISRDNAKNTVYLQMNSLKPEDTAVYYCAAGSWYPPSYVWLRRYDYWGQGTQVTVSS”, the “polyreactivity (PSR sort gate)” value was “low polyreactivity”.

As to “QVQLVESGGGLVQAGGSLRLSCAASGFTFKTYVMGWYRQAPGKERELVAAISRRGGSTHYADSVKGRFTISRDNAKNTVYLQMNSLKPEVTAVYYCAARHPFAGTVWGVVSYDYWGQGTLVTVSS”, the “polyreactivity (PSR sort gate)” value is reported as “high polyreactivity”.

“QVQLVESGGGLVQAGGSLRISCAASGFIFEQYAMGWYRQAPGKERELVARISWRGGSTYYADSVKGRFTISRDNAKNTVYLQMNSLKPEDTAVYYCAADVYTRFWRVYRFDYWGQGTQVTVSS”: the “polyreactivity (PSR sort gate)” value is recorded as “low polyreactivity”.

For “QVQLVESGVGLVQAGGSLRLSCAASGRTIPIYAMGWYRQAPGKERELVASITRSGGSTYYADSVKGRFTISRDNAKYTVYLQMNSLKPEDTAVYYCAAAANSYSVYSGKFYYWGQGTQVTVSS”, the “polyreactivity (PSR sort gate)” value was “high polyreactivity”.

Regarding “QVHLVESGGGLVQAGGSLRLSCAASGSIFPYAMGWYRHAPAKERELVAVISWSGASTYYADSVKGRFTISRDNAKNTVYLQMNSLKQEDTAVYYCAVYRYYKLVHLYGYDYWGQGTQVTVSS”, the “polyreactivity (PSR sort gate)” value is listed as “high polyreactivity”.

As to “QVQLVESGGGLVQAGGSLRLSCAASGSIFRYNAMGWYRQAPGTEREVVAGITSGGDTNYADSVKGRFTISRDNAKNTVYLQMNSLKPEDTAVYYCAKRWYGGRRYDYWGQGTQVTVSS”, the “polyreactivity (PSR sort gate)” value was “low polyreactivity”.

Regarding “QVQLVESGGGLVQAGGSLRLSCAASGRTLQTYVMGWYRQAPGKERELVAAITRGGGSTYYADSVKGRFTISRDNAKNTVYLQMNSLKPEDTAVYYCAASALRFNSRFSHWYNYWGQGTQVTVSS”, the “polyreactivity (PSR sort gate)” value is given as “high polyreactivity”.

As for “QVQLVESGGGLVQEGGSLRLSCAASGIIFGPYVMGWYRQAPGKERELVATISRTGDTYYADSVKGRFTISRDNAKNTVYLQMNSVKPEDTAVYYCNTQDHGYGFTMDYWGQGTQVTVSS”, the “polyreactivity (PSR sort gate)” value was “low polyreactivity”.

On to “QVQLVESGGGLVQAGGSLRLSCAASGSISYFNAMGWYIQAPGKERELVAAISRGATTYADSVKGRFTISRDNAKNTVYLQMNSLKPEDTAVYYCNAGLRGNIRKSYRYDSWGQGTQVTVSS”, for which the “polyreactivity (PSR sort gate)” value is recorded as “high polyreactivity”.

Take “QVQLVESGGGLVQAGGSLRLSCAASGFTFGSNTMGWYRQAPGKERELVAAITTSGDSTYYADSVKGRFTISRDNAKNTVYLQMNSLKPEDTAVYYCAAERRYGRYYRLVRLLGQGTQVTVSS”: the “polyreactivity (PSR sort gate)” value is recorded as “high polyreactivity”.

“QVQLVESGGGLVQAGGSLRLICAASGSIFSVNTMGWYREAPGKERELVATIRTGDSTNYADSVKGRFTISRDNAKNTVYLQMNSLKPEDTAVYYCAAEWSSLNFDYWGQGTQVTVSS”: the “polyreactivity (PSR sort gate)” value is given as “low polyreactivity”.

In the case of “QVQLVESGGGLVQAGGSLRLSCAASGSTFGIYAMGWYRQAPGKERELVAAISWRGGRTYYADSVKGRFTISRDNAKNTVYLQMNSLKPEDTAVYYCAADYRYLWEGYDYWGQGTQVTVSS”, the “polyreactivity (PSR sort gate)” value is reported as “low polyreactivity”.

Take “QVQLVESGGGLVQAGGSLRLSCAASGRIFGTHDMGWYRQAPGKESELVAAIRATSGSTYYADSVKGRFTISRDNAKNTVYLQMYSLKPEDTAVYYCAAEIWRYNSYIKYWHRVDYWGQGTQVTVSS”: the “polyreactivity (PSR sort gate)” value is “high polyreactivity”.

With “QVQLVESGGGLVQAGGSLRLICAASGFIFWRYAMGWYRQAPGKERELVAAISRTSTSTYYADSVKGRFTISRDNAKNSVYLQMNSLKPEDTAVYYCAATFSTFYGYGYWGQGSQVTVSS”, the “polyreactivity (PSR sort gate)” value is on record as “high polyreactivity”.

Take “QVQLVESGGGLVQAGGILRFSCAASGRTFKYYAMGWYRQAPGKERELVAAISYNGGSTFYADSVKGRFTISRDNAKNTVYLQLNSLKPEDTAVYYCAAGPRGTGKYYWGQGTQVTVSS”: the “polyreactivity (PSR sort gate)” value was “high polyreactivity”.

The values above are taken from the nanobody polyreactivity screen of Harvey et al. (2022).
